Results: FireProtDB (doi:10.1021/bi992119u)

B1: Steroid Delta-isomerase, P07445 (parent)
chain: MNLPTAQEVQGLMARYIELVDVGDIEAIVQMYADDATVEDPFGQPPIHGREQIAAFYRQGLGGGKVRACLTGPVRASHNGCGAMPFRVEMVWNGQPCALDVIDVMRFDEHGRIQTMQAYWSEVNLSVREPQ

Variants of: B1
Settings: Pseudomonas putida; pH 7; 25 °C; Urea; CD; Sodium phosphate 25 mM; reversible: yes; structure 1OH0; whole UniProt chain shown

| Variant | denaturant m value [kcal/mol/M] | denaturant midpoint (higher = more stable) [M] | unfolding free energy [kcal/mol] |
| --- | --- | --- | --- |
| MNLPTAQEVQGLMARFIELVDVGDIEAIVQMYADDATVEDPFGQPPIHGREQIAAFYRQGLGGGKVRACLTGPVRASHNGCGAMPFRVEMVWNGQPCALDVIDVMRFDEHGRIQTMQAYWSEVNLSVREPQ | 3.1 | 4.3 | 19.9 |
| MNLPTAQEVQGLMARYIELVDVGDIEAIVQMFADDATVEDPFGQPPIHGREQIAAFYRQGLGGGKVRACLTGPVRASHNGCGAMPFRVEMVWNGQPCALDVIDVMRFDEHGRIQTMQAYWSEVNLSVREPQ | 3.23 | 5.49 | 24.3 |
| MNLPTAQEVQGLMARYIELVDVGDIEAIVQMFADDATVEDPFGQPPIHGREQIAAFYRQGLGGGKVRACLTGPVRASHNGCGAMPFRVEMVWNGQPCALDLIDVMRFDEHGRIQTMQAYWSEVNLSVREPQ | 2.52 | 4.45 | 17.8 |
| MNLPTAQEVQGLMARYIELVDVGDIEAIVQMFADDATVEDPFGQPPIHGREQIAAFFRQGLGGGKVRACLTGPVRASHNGCGAMPFRVEMVWNGQPCALDVIDVMRFDEHGRIQTMQAYWSEVNLSVREPQ | 3.05 | 5.81 | 24.3 |
| MNLPTAQEVQGLMARYIELVDVGDIEAIVQMYADDATVEDPFGQPPIHGREQIAAFFRQGLGGGKVRACLTGPVRASHNGCGAMPFRVEMVWNGQPCALDVIDVMRFDEHGRIQTMQAYWSEVNLSVREPQ | 2.98 | 4.77 | 20.8 |
| MNLPTAQEVQGLMARYIELVDVGDIEAIVQMYADDATVEDPFGQPPIHGREQIAAFFRQGLGGGKVRACLTGPVRASHNGCGAMPFRVEMVWNGQPCALDLIDVMRFDEHGRIQTMQAYWSEVNLSVREPQ | 2.31 | 4.25 | 16.4 |
| MNLPTAQEVQGLMARYIELVDVGDIEAIVQMYADDATVEDPFGQPPIHGREQIAAFYRQGLGGGKVRACLTGPVRASHNGCGAMPFRVEMVWNGQPCALDLIDVMRFDEHGRIQTMQAYWSEVNLSVREPQ | 3.32 | 4.19 | 20.5 |
